This note sets out measurements from the RNAGym collection of RNA variant scans (doi:10.1093/nar/gkz1192).

First the molecules themselves.
B1: CPEB3 Ribozyme (parent)
chain: UAACAGGGGGCCACAGCAGAAGCGUUCACGUCGCAGCCCCUGUCAGAUUCUGGUGAAUCUGCGAAUUCUGCUGUAUAUCUC

The variants in the data set derive from B1. Briefly: self-cleavage, relative activity (ratio to wild type); higher = more cleavage; in vitro, sequencing. Summed up:
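Relative activity compares each variant's cleaved/total read fraction with that of the unmutated ribozyme. To get these fractions, barcoded CPEB3 ribozyme libraries from rounds of error-prone PCR were transcribed with T7 RNA polymerase for 5 hours at 37°C and then given 15 min of DNase I treatment before EDTA was added. The RNAs were reverse transcribed with template switching and sequenced on Illumina, and DNA sequencing linked barcodes to variants. A minimum of 5 reads applied, and three batches were averaged.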
Regarding A57G A65C, the self-cleavage turned out to be 0.15.

On to U58C U78C, for which the self-cleavage came to 0.47.

Consider U58C U78G, for which the self-cleavage stood at 0.44.

For the variant U58C U78A, the self-cleavage amounted to 0.47.

A56U A65U: the self-cleavage was determined as 0.21.

Turning to A56U A65G, the self-cleavage amounted to 0.29.

Regarding U58A G70C, the self-cleavage is 0.14.

As to U58A G63A, the self-cleavage was 0.59.

Turning to A57U U67A, the self-cleavage worked out at 0.38.

For A57U U67C, the self-cleavage stood at 0.22.

On to A57U U76C, for which the self-cleavage came to 0.94.

For A57U U76A, the self-cleavage turned out to be 1.01.

For the variant A56G G63U, the self-cleavage was found to be 1.03.

Take A56G G63A: the self-cleavage was determined as 0.97.

For A56G G70U, the self-cleavage turned out to be 0.25.

Consider A56G G70A, for which the self-cleavage was 0.49.

As to A56G G70C, the self-cleavage is 0.21.

For the variant U58G A65G, the self-cleavage came out at 0.1.

As to U58C G61U, the self-cleavage is 0.21.

On to A57U U72A, for which the self-cleavage came out at 0.43.

With A57U U72C, the self-cleavage was determined as 0.89.

In the case of U58C C59U, the self-cleavage came to 0.21.

In the case of U58A U72G, the self-cleavage is 0.42.

As for U58A U72A, the self-cleavage came to 0.38.

As for U58A U72C, the self-cleavage amounted to 0.43.

As to A56U C79A, the self-cleavage came to 1.12.

As for A56G G61A, the self-cleavage was 0.63.

For the variant A56G G61U, the self-cleavage turned out to be 0.62.

Regarding A57G G73A, the self-cleavage was determined as 1.25.

As to A57G G73U, the self-cleavage was determined as 1.15.

Consider A56G A57G, for which the self-cleavage stood at 0.42.

Take A56G A57U: the self-cleavage turned out to be 0.37.

On to U58A U60A, for which the self-cleavage was 0.17.

As to U58A U60C, the self-cleavage was 0.23.

As to U58A U60G, the self-cleavage was 0.17.

For the variant A56U A64C, the self-cleavage was 0.19.

Consider A56U A64U, for which the self-cleavage turned out to be 0.28.

Turning to A56U A64G, the self-cleavage is 0.51.

On to U58G U66C, for which the self-cleavage is 0.27.

With U58A G73A, the self-cleavage is 1.1.

For A57C U80C, the self-cleavage is 0.67.

On to A56G A64U, for which the self-cleavage is 0.3.

Consider A56G A64G, for which the self-cleavage came out at 0.8.

A56G A64C: the self-cleavage amounted to 0.46.

On to U58C U76A, for which the self-cleavage is 0.68.

Take U58C U76G: the self-cleavage is 0.69.

Regarding U58C U76C, the self-cleavage stood at 0.67.

A56G C62A: the self-cleavage was 0.23.

Turning to A56G C62U, the self-cleavage is 0.31.

In the case of A56G C62G, the self-cleavage was found to be 0.2.

On to A57U U60C, for which the self-cleavage came out at 0.27.

Take A57U U60A: the self-cleavage came out at 0.24.

As to U58A U69A, the self-cleavage came out at 0.23.

As to U58A U69C, the self-cleavage came out at 0.28.

Turning to A57C U66C, the self-cleavage was found to be 0.16.

On to A57C U66A, for which the self-cleavage turned out to be 0.2.

In the case of A56U C71U, the self-cleavage was 0.46.

For the variant A56U C71G, the self-cleavage worked out at 0.26.

With A56U C71A, the self-cleavage came to 0.26.

As to A57U A77U, the self-cleavage came to 1.01.

Regarding A57U A77G, the self-cleavage is 0.76.

As for U58G U74A, the self-cleavage amounted to 0.31.

In the case of A56U U60A, the self-cleavage was determined as 0.3.

On to A56U U60G, for which the self-cleavage stood at 0.24.

With A56U U60C, the self-cleavage was 0.27.

A56G U78C: the self-cleavage worked out at 0.73.

Take A56G U78G: the self-cleavage came to 0.96.

Consider A56G U78A, for which the self-cleavage came to 0.91.

Regarding A56G U74A, the self-cleavage was determined as 1.11.

Consider A56G U74C, for which the self-cleavage turned out to be 1.12.

Take A57U U69A: the self-cleavage amounted to 0.4.

In the case of A57U U69C, the self-cleavage was determined as 0.3.

On to A57U U69G, for which the self-cleavage is 0.44.

For A57C G61C, the self-cleavage came out at 0.16.

Consider A56G C71U, for which the self-cleavage is 0.51.

Turning to A56U G70A, the self-cleavage was found to be 0.35.

A56U G70U: the self-cleavage amounted to 0.21.

Turning to A57U U66C, the self-cleavage was 0.33.

For the variant U58A U76A, the self-cleavage was determined as 0.49.

On to A57G U67A, for which the self-cleavage stood at 0.45.

Regarding A57G U67C, the self-cleavage worked out at 0.35.

Regarding A57G U67G, the self-cleavage was determined as 0.38.

As for A56G U76C, the self-cleavage is 0.85.

With A56G U76A, the self-cleavage is 1.07.

In the case of A56U A75U, the self-cleavage came to 0.79.

With A56U A75G, the self-cleavage came out at 0.54.

In the case of A57G U60G, the self-cleavage was found to be 0.26.

A57G U60A: the self-cleavage turned out to be 0.4.

In the case of A57G U60C, the self-cleavage was 0.42.

Regarding A57G C79A, the self-cleavage stood at 0.73.

As for A57G C79U, the self-cleavage was determined as 1.1.

Consider A57G C59G, for which the self-cleavage amounted to 0.21.

For A57G C59A, the self-cleavage came to 0.2.

Consider A57G C59U, for which the self-cleavage came out at 0.83.

Regarding A56U U58C, the self-cleavage worked out at 0.3.

As for A56U U58A, the self-cleavage was 0.31.

Regarding A56U U58G, the self-cleavage stood at 0.18.

For the variant A57U G70U, the self-cleavage amounted to 0.19.

Turning to A57U G70A, the self-cleavage was 0.38.

Turning to U58A A75G, the self-cleavage is 0.46.

As for U58A A75U, the self-cleavage was 0.29.

With U58A U67A, the self-cleavage worked out at 0.32.

With U58A U67C, the self-cleavage was 0.31.

With A56G A77G, the self-cleavage is 0.77.

With A56G A77U, the self-cleavage is 0.99.

On to A56G A77C, for which the self-cleavage worked out at 0.79.

For the variant A57G G70A, the self-cleavage is 0.49.

With A57G G70C, the self-cleavage is 0.22.

A57U C79G: the self-cleavage is 1.16.

Take A57G U76G: the self-cleavage turned out to be 1.08.

In the case of A57G U76A, the self-cleavage amounted to 1.01.

Regarding A57G U76C, the self-cleavage is 1.01.

As to A57C A64U, the self-cleavage turned out to be 0.44.

With A57C A64G, the self-cleavage was found to be 0.34.

For A56U U67A, the self-cleavage was 0.43.

Consider A56U U67G, for which the self-cleavage was determined as 0.16.

For the variant A56U U67C, the self-cleavage was 0.26.

For U58C, the self-cleavage was determined as 0.56.

Turning to U58A, the self-cleavage stood at 0.41.

As for U58G, the self-cleavage stood at 0.34.

As to A57G G61A, the self-cleavage was found to be 0.59.

As to A57G G61U, the self-cleavage was found to be 0.64.

With A56U G63A, the self-cleavage was found to be 0.48.

Consider A56U G63C, for which the self-cleavage was 0.61.

Turning to U58C C62A, the self-cleavage stood at 0.36.

U58C C62U: the self-cleavage is 0.22.

Consider U58C C62G, for which the self-cleavage was determined as 0.27.

For the variant A56G U80A, the self-cleavage came out at 0.92.

For the variant A56G U80C, the self-cleavage was 0.84.

In the case of A56G U80G, the self-cleavage came out at 0.99.

Turning to A56U C68U, the self-cleavage amounted to 0.55.

Regarding A56U C81A, the self-cleavage came out at 1.2.

Consider U58A C59A, for which the self-cleavage was 0.25.

As to A56U U76C, the self-cleavage came out at 0.8.

Take A56U U76A: the self-cleavage worked out at 0.84.

As for A56U U76G, the self-cleavage came to 0.89.

Consider A56U U80C, for which the self-cleavage is 0.83.

Take A56U U80A: the self-cleavage was 1.

In the case of A56U G73A, the self-cleavage came out at 1.18.

Turning to U58C U80G, the self-cleavage stood at 0.67.

On to U58C U80A, for which the self-cleavage was determined as 0.91.

U58C U80C: the self-cleavage amounted to 0.57.

As to A56G A65G, the self-cleavage stood at 0.32.

On to A56G A65C, for which the self-cleavage stood at 0.15.

For the variant A56G A65U, the self-cleavage was 0.25.

As for A57C G63A, the self-cleavage is 0.58.

Turning to U58G G63A, the self-cleavage came to 0.45.

Regarding U58A U78C, the self-cleavage came out at 0.42.

Turning to U58A A64G, the self-cleavage stood at 0.32.

As to A57U, the self-cleavage came out at 0.8.

Take A57C: the self-cleavage is 0.48.

In the case of A57G, the self-cleavage was 0.96.

In the case of A56G U60C, the self-cleavage came to 0.42.

For A56G U60G, the self-cleavage was 0.34.

With A56G U60A, the self-cleavage is 0.41.

For the variant C59A A64G, the self-cleavage came to 0.2.

For the variant U58C U67A, the self-cleavage came out at 0.28.

On to U58C U67C, for which the self-cleavage amounted to 0.29.

On to A56G C59A, for which the self-cleavage amounted to 0.23.

Turning to A56G C59G, the self-cleavage stood at 0.21.

Consider A56G C59U, for which the self-cleavage was 0.52.

For the variant U58A A77C, the self-cleavage was 0.33.

On to U58A A77G, for which the self-cleavage is 0.38.

In the case of U58A A77U, the self-cleavage is 0.43.

Take A57U U58G: the self-cleavage is 0.1.

Consider A57U U58C, for which the self-cleavage amounted to 0.18.

Turning to A57U U58A, the self-cleavage was 0.3.
